Laboratory results from article PMC13397619.

B1: NLV3 TCR beta chain (CDR3β only) (parent)
chain: ASSPTGGSPSPLH
partner: NLCPMVATV

Variants of: B1
Experiment: T-Switch: Jurkat TCRβ−/− cells expressing a CDR3 saturation-mutagenesis library, stained with two peptide-HLA-A*02:01 tetramers (original and novel peptide) plus anti-CD3, FACS-sorted into four gates, gDNA sequenced
Details: with HLA-A*02:01 with peptide … (NLV 2-1, the novel peptide), tetramers 1 µg/mL, 30 min on ice, SP, DP and SW gates expanded about 10 days between rounds ('two to three rounds of selection' in the Methods), gate SW: higher = more of the variant in the gate that binds the novel peptide and not the original one = switched binding. Fold enrichment of the CDR3 variant in one FACS gate of a two-tetramer stain, unresolved parent, parent is a CDR3 fragment, scale: fold enrichment, numbering: sequential-on-construct, sequence starts at 1
For […] (CDR3 as printed); H13V derived by comparing it with the table's wild-type CDR3 ASSPTGGSPSPLH, the enrichment was 0.
With […] (CDR3 as printed); P4S derived by comparing it with the table's wild-type CDR3 ASSPTGGSPSPLH the enrichment was 0.
[…] (CDR3 as printed); H13N derived by comparing it with the table's wild-type CDR3 ASSPTGGSPSPLH gave an enrichment of 0.
[…] (CDR3 as printed); H13G derived by comparing it with the table's wild-type CDR3 ASSPTGGSPSPLH gave an enrichment of 0.
Variant […] (CDR3 as printed); T5A derived by comparing it with the table's wild-type CDR3 ASSPTGGSPSPLH has an enrichment of 0.
[…] (CDR3 as printed); P9S derived by comparing it with the table's wild-type CDR3 ASSPTGGSPSPLH was tested, and the enrichment was 0.
For […] (CDR3 as printed); P4E derived by comparing it with the table's wild-type CDR3 ASSPTGGSPSPLH, the enrichment was 0.
Work on […] (CDR3 as printed); T5D derived by comparing it with the table's wild-type CDR3 ASSPTGGSPSPLH yielded an enrichment of 0.
[…] (CDR3 as printed); L12I derived by comparing it with the table's wild-type CDR3 ASSPTGGSPSPLH was tested, and the enrichment was 0.
Work on […] (CDR3 as printed); A1R derived by comparing it with the table's wild-type CDR3 ASSPTGGSPSPLH yielded an enrichment of 0.
For […] (CDR3 as printed); S8P derived by comparing it with the table's wild-type CDR3 ASSPTGGSPSPLH, the enrichment was 0.
With […] (CDR3 as printed); P11R derived by comparing it with the table's wild-type CDR3 ASSPTGGSPSPLH the enrichment was 0.
[…] (CDR3 as printed); P4Y derived by comparing it with the table's wild-type CDR3 ASSPTGGSPSPLH gave an enrichment of 0.
For […] (CDR3 as printed); P11A derived by comparing it with the table's wild-type CDR3 ASSPTGGSPSPLH, the enrichment was 0.
Work on […] (CDR3 as printed); P4D derived by comparing it with the table's wild-type CDR3 ASSPTGGSPSPLH yielded an enrichment of 0.
For […] (CDR3 as printed); S10K derived by comparing it with the table's wild-type CDR3 ASSPTGGSPSPLH, the enrichment was 0.
[…] (CDR3 as printed); S3G derived by comparing it with the table's wild-type CDR3 ASSPTGGSPSPLH showed an enrichment of 0.
For […] (CDR3 as printed); A1N derived by comparing it with the table's wild-type CDR3 ASSPTGGSPSPLH, the enrichment was 0.
In the case of […] (CDR3 as printed); P9Q derived by comparing it with the table's wild-type CDR3 ASSPTGGSPSPLH, the enrichment is reported as 0.
For […] (CDR3 as printed); P9W derived by comparing it with the table's wild-type CDR3 ASSPTGGSPSPLH, the enrichment was 0.
[…] (CDR3 as printed); G7C derived by comparing it with the table's wild-type CDR3 ASSPTGGSPSPLH showed an enrichment of 0.
[…] (CDR3 as printed); P9D derived by comparing it with the table's wild-type CDR3 ASSPTGGSPSPLH was tested, and the enrichment was 0.
In the case of […] (CDR3 as printed); S2E derived by comparing it with the table's wild-type CDR3 ASSPTGGSPSPLH, the enrichment is reported as 0.
With […] (CDR3 as printed); S8Y derived by comparing it with the table's wild-type CDR3 ASSPTGGSPSPLH the enrichment was 0.
[…] (CDR3 as printed); S8H derived by comparing it with the table's wild-type CDR3 ASSPTGGSPSPLH was tested, and the enrichment was 0.
In the case of […] (CDR3 as printed); P9F derived by comparing it with the table's wild-type CDR3 ASSPTGGSPSPLH, the enrichment is reported as 0.
[…] (CDR3 as printed); P11M derived by comparing it with the table's wild-type CDR3 ASSPTGGSPSPLH gave an enrichment of 0.
Work on […] (CDR3 as printed); L12H derived by comparing it with the table's wild-type CDR3 ASSPTGGSPSPLH yielded an enrichment of 0.
[…] (CDR3 as printed); S8I derived by comparing it with the table's wild-type CDR3 ASSPTGGSPSPLH gave an enrichment of 0.
[…] (CDR3 as printed); L12R derived by comparing it with the table's wild-type CDR3 ASSPTGGSPSPLH gave an enrichment of 0.
With […] (CDR3 as printed); H13Q derived by comparing it with the table's wild-type CDR3 ASSPTGGSPSPLH the enrichment was 0.
For […] (CDR3 as printed); A1M derived by comparing it with the table's wild-type CDR3 ASSPTGGSPSPLH, the enrichment was 0.
In the case of […] (CDR3 as printed); L12M derived by comparing it with the table's wild-type CDR3 ASSPTGGSPSPLH, the enrichment is reported as 0.
[…] (CDR3 as printed); S8D derived by comparing it with the table's wild-type CDR3 ASSPTGGSPSPLH gave an enrichment of 0.
[…] (CDR3 as printed); S2R derived by comparing it with the table's wild-type CDR3 ASSPTGGSPSPLH was tested, and the enrichment was 0.
[…] (CDR3 as printed); G7N derived by comparing it with the table's wild-type CDR3 ASSPTGGSPSPLH gave an enrichment of 0.
With […] (CDR3 as printed); T5Y derived by comparing it with the table's wild-type CDR3 ASSPTGGSPSPLH the enrichment was 0.
Variant […] (CDR3 as printed); G7M derived by comparing it with the table's wild-type CDR3 ASSPTGGSPSPLH has an enrichment of 0.
For […] (CDR3 as printed); L12G derived by comparing it with the table's wild-type CDR3 ASSPTGGSPSPLH, the enrichment was 0.
For […] (CDR3 as printed); A1I derived by comparing it with the table's wild-type CDR3 ASSPTGGSPSPLH, the enrichment was 0.
For […] (CDR3 as printed); L12A derived by comparing it with the table's wild-type CDR3 ASSPTGGSPSPLH, the enrichment was 0.
[…] (CDR3 as printed); G6T derived by comparing it with the table's wild-type CDR3 ASSPTGGSPSPLH showed an enrichment of 0.
